What was measured:
[1] = target: K63-linked diubiquitin (Boston Biochem) (human) (UniProt P0CG48); experiment: western blot, IgG 1 µg/mL, two-fold dilutions of K63-linked diubiquitin 1 µg to 16 ng
[2] = target: K11 polyubiquitin linkages in 293T cell lysates (human) (UniProt P0CG48); experiment: IP from 293T lysate (empty vector), 7 M urea, mass spec AQUA; input 1085 pmol
[3] = target: K48 polyubiquitin linkages in 293T cell lysates (human) (UniProt P0CG48); experiment: IP from lysate of 293T cells over-expressing LUBAC, 7 M urea, mass spec AQUA; input 12420 pmol

| limit of detection [1] | pmol of ubiquitin linkage in the immunoprecipitate [2] | pmol of ubiquitin linkage in the immunoprecipitate [3] | Substance |
| --- | --- | --- | --- |
| 62 ng | – | – | Apu3.A8 anti-K63 IgG (antibody) |
| – | 0 pmol | 1 pmol | isotype control IgG (unrelated human kappa IgG1 antibody) |

Reference: patent publication US20130058955A1
